Laboratory results as given in patent US20230374144A1 (STAIDSON BEIJING BIOPHARMACEUTICAL, published 2023).

Assays:
human IL-4Rα on cells [1] = biological target: T1, human IL-4Rα on cells (human, UniProt P24394 26-825); assay: cell-based or functional assay
[2] = biological target: T2, recombinant human IL-4Rα (extracellular domain, tagged) (human, UniProt P24394 26-232); assay: SPR, Biacore T200; antibody (human IgG4) on the sensor chip, human IL-4Rα at 0.625-12.5 nM
T2 construct: it is written second here only for want of that; also called hIL-4Rα; not shown: His-tag or other conventionally used tag
Protocol: The binding affinity of the anti-IL-4Rα antibodies (reformatted as human IgG4) to human IL-4Rα was characterized using Biacore T200 (GE). The full-length anti-IL-4Rα antibodies were stabilized on sensor chip CMS. The affinities for human IL-4Rα at various concentrations were measured. […] Using the SPR technology, the association and dissociation rates were measured, and binding affinity was determined.

IL-4R with mouse Fc-tag = biological target: T3, IL-4R with mouse Fc-tag (human, UniProt P24394 26-232); assay: competitive ELISA: antibody dilutions with 0.5 µg/mL IL-4R-mouse Fc on plate-captured biotinylated IL-4, anti-mouse-Fc-HRP
T3 construct: not shown: mouse Fc-tag
Protocol: Competitive ELISA: The second assay was designed to identify the anti-IL-4Rα antibodies that were capable of inhibiting the binding of hIL-4 to hIL-4Rα, as measured by competitive ELISA. Briefly, a 96-well plate was coated with 100 μL, 2.5 μg/mL SA (Streptavidin) solution, and incubated overnight at 4° C., followed by washed with TBST. Biotinylated IL-4 with the final concentration of 2 μg/mL was added into the plate and incubated at 37° C. for 1 hour. Then the plate was washed with TBST. The anti-IL-4Rα antibody samples were first diluted to 10 μg/mL, and 1004, of the sample was added to the first row of wells. 10 μg/mL anti-IL-4Rα antibody samples were then serially diluted at a 1:2 ratio and added to each of the remaining rows of wells. 504 of 0.5 μg/mL IL-4R with mouse Fc-tag was added to each well. After incubating for 1 hour at 37° C., the wells were washed with TBST 6 times. 100 µL of anti-mouse-Fc-HRP (1:10,000) was then added to each well and incubated for 1 hour at 37° C. The wells were washed with TBST 6 times before adding 1004/well of TMB, and incubated for 5-10 minutes at 37° C. 2M H₂SO₄ was used to stop the reaction. The ELISA results (OD450) were read, and the binding curves were generated by GraphPad Prism 5 software (GraphPad Software). Reference antibody Dupilumab (Regeneron, anti-IL-4Rα antibody) and AMG317 (Amgen, anti-IL-4Rα antibody) were used as positive controls, Human IgG4, kappa Isotype Control (Cat #HG4K, Sino Biological Inc.) was used as negative control, abbreviated as Human IgG4 in FIG. 1.

human IL-4Rα on cells [3] = biological target: T1, human IL-4Rα on cells; assay: cell-based or functional assay; remark: listed apart in the source

Binder	IC50(nM), neutralization of hIL-4 (1.2 ng/ml), HEK-Blue IL-4/IL-13 STAT6-SEAP reporter cells (human IL-4Rα on cells [1]) [nM]	Kd [2] [nM]	koff [2] [s⁻¹]	kon [2] [M⁻¹ s⁻¹]	IC50 (IL-4R with mouse Fc-tag) [µg/mL]	IC50(nM), neutralization of hIL-13 (4 ng/ml), HEK-Blue IL-4/IL-13 STAT6-SEAP reporter cells (human IL-4Rα on cells [3]) [nM]
C27 (antibody, human IgG4, V domains shown, also called parent antibody C27; lead parent antibody) VH: EVQLLESGGGLVQPGGSLRLSCAASGFTLSSYAMHWVRQAPGKGLEYVSGISSNGGSTYYANSVKGRFTISRDNPKNTLFLQMSSLRAEDTAVYYCVRVKVGYRGGMDVWGQGTTVTVSS VL: ETTLTQSPDTLPLSPGDRASLSCRASQSVSSAYLAWYQQKPGQAPRLLIYGTSRRATGVPGRFSGSGSGTDFTLTISRLEPEDFAVYYCQLYGSSSVTFGQGTKLEIK	17.9	17.6	0.0127	719000	–	–
C27-6-33 (antibody, human IgG4, V domains shown) VH: EVQLLESGGGLVQPGGSLRLSCAASGFTLSSYAMHWVRQAPGKGLEYVSGISPSGSSTYYANSVKGRFTISRDNPKNTLFLQMSSLRAEDTAVYYCVRSKVRYRGGMDVWGQGTTVTVSS VL: EIVLTQSPGTLSLSPGERATLSCRASQGISSAYLAWYQQKPGQAPRLLIYGTSRRATGIPDRFSGSGSGTDFTLTISRLEPEDFAVYYCQLYGATSVTFGQGTKLEIK	0.0537	2.12	0.00017	80400	0.0781	0.0446
C27-24-56 (antibody, human IgG4, V domains shown) VH: EVQLLESGGGLVQPGGSLRLSCAASGFTLSSYAMHWVRQAPGKGLEYVSGISPTSGSTYYANSVKGRFTISRDNPKNTLFLQMSSLRAEDTAVYYCVRVKVRYRGGMDVWGQGTTVTVSS VL: EIVLTQSPGTLSLSPGERATLSCRASQSVSSAYLAWYQQKPGQAPRLLIYGTSRRATGIPDRFSGSGSGTDFTLTISRLEPEDFAVYYCQLYGASSVTFGQGTKLEIK	0.0632	1.86	0.000173	92700	0.0632	0.0482
C27-33-33 (antibody, human IgG4, V domains shown) VH: EVQLLESGGGLVQPGGSLRLSCAASGFTLSSYAMHWVRQAPGKGLEYVSGISSSGSSTYYANSVKGRFTISRDNPKNTLFLQMSSLRAEDTAVYYCVRVKVAYRGGMDVWGQGTTVTVSS VL: EIVLTQSPGTLSLSPGERATLSCRASQGISSAYLAWYQQKPGQAPRLLIYGTSRRATGIPDRFSGSGSGTDFTLTISRLEPEDFAVYYCQLYGATSVTFGQGTKLEIK	0.195	3.74	0.000447	119000	–	–
C27-36-36 (antibody, human IgG4, V domains shown) VH: EVQLLESGGGLVQPGGSLRLSCAASGFTLSSYAMHWVRQAPGKGLEYVSGISPSGVSTYYANSVKGRFTISRDNPKNTLFLQMSSLRAEDTAVYYCVRVKVKYRGGMDVWGQGTTVTVSS VL: EIVLTQSPGTLSLSPGERATLSCRASQNISTAYLAWYQQKPGQAPRLLIYGTSRRATGIPDRFSGSGSGTDFTLTISRLEPEDFAVYYCQLYGATSVTFGQGTKLEIK	0.125	2.56	0.000351	137000	–	–
C27-55-55 (antibody, human IgG4, V domains shown) VH: EVQLLESGGGLVQPGGSLRLSCAASGFTLSSYAMHWVRQAPGKGLEYVSGISPTGGSTYYANSVKGRFTISRDNPKNTLFLQMSSLRAEDTAVYYCVRVKGRYRGGMDVWGQGTTVTVSS VL: EIVLTQSPGTLSLSPGERATLSCRASQNISTAYLAWYQQKPGQAPRLLIYGTSRRATGIPDRFSGSGSGTDFTLTISRLEPEDFAVYYCQLYGTSSVTFGQGTKLEIK	0.0853	2.47	0.000379	154000	–	–
C27-56-56 (antibody, human IgG4, V domains shown) VH: EVQLLESGGGLVQPGGSLRLSCAASGFTLSSYAMHWVRQAPGKGLEYVSGISPSSTSTYYANSVKGRFTISRDNPKNTLFLQMSSLRAEDTAVYYCVRVKVLYRGGMDVWGQGTTVTVSS VL: EIVLTQSPGTLSLSPGERATLSCRASQSVSSAYLAWYQQKPGQAPRLLIYGTSRRATGIPDRFSGSGSGTDFTLTISRLEPEDFAVYYCQLYGASSVTFGQGTKLEIK	0.15	2.38	0.000201	84500	–	–
C27-78-78 (antibody, human IgG4, V domains shown) VH: EVQLLESGGGLVQPGGSLRLSCAASGFTLSSYAMHWVRQAPGKGLEYVSGISPSSASTYYANSVKGRFTISRDNPKNTLFLQMSSLRAEDTAVYYCVRVKSKYRGGMDVWGQGTTVTVSS VL: EIVLTQSPGTLSLSPGERATLSCRASQSISTAYLAWYQQKPGQAPRLLIYGTSRRATGIPDRFSGSGSGTDFTLTISRLEPEDFAVYYCQLYGASSVTFGQGTKLEIK	0.103	3.62	0.000416	115000	–	–
C27-82-58 (antibody, human IgG4, V domains shown) VH: EVQLLESGGGLVQPGGSLRLSCAASGFTLSSYAMHWVRQAPGKGLEYVSGISGNSASTYYANSVKGRFTISRDNPKNTLFLQMSSLRAEDTAVYYCVRVKLKYRGGMDVWGQGTTVTVSS VL: EIVLTQSPGTLSLSPGERATLSCRASQDISSAYLAWYQQKPGQAPRLLIYGTSRRATGIPDRFSGSGSGTDFTLTISRLEPEDFAVYYCQLYGATSVTFGQGTKLEIK	0.283	3.67	0.000557	152000	–	–
C27-Y2-Y2 (antibody, human IgG4, V domains shown) VH: EVQLLESGGGLVQPGGSLRLSCAASGFTLSSYAMHWVRQAPGKGLEYVSGISYSSASTYYANSVKGRFTISRDNPKNTLFLQMSSLRAEDTAVYYCVRVKVRYRGGMDVWGQGTTVTVSS VL: EIVLPQSPGTLSLSPGERATLSCRASQGVSSAYLAWYQQKPGQAPRLLIYGTSRRATGIPDRFSGSGSGTDFTLTISRLEPEDFAVYYCQLYGSTSVTFGQGTKLEIK	0.138	5.6	0.00078	139000	–	–
C27-54-54 (antibody, human IgG4, V domains shown) VH: EVQLLESGGGLVQPGGSLRLSCAASGFTLSSYAMHWVRQAPGKGLEYVSGISHSGTSTYYANSVKGRFTISRDNPKNTLFLQMSSLRAEDTAVYYCVRVRVLYRGGMDVWGQGTTVTVSS VL: EIVLTQSPGTLSLSPGERATLSCRASQDVSSAYLAWYQQKPGQAPRLLIYGTSRRATGIPDRFSGSGSGTDFTLTISRLEPEDFAVYYCQLYGATSVTFGQGTKLEIK	0.34	–	–	–	–	–
C27-67-67 (antibody, human IgG4, V domains shown) VH: EVQLLESGGGLVQPGGSLRLSCAASGFTLSSYAMHWVRQAPGKGLEYVSGISPTSASTYYANSVKGRFTISRDNPKNTLFLQMSSLRAEDTAVYYCVRVKGRYRGGMDVWGQGTTVTVSS VL: EIVLTQSPGTLSLSPGERATLSCRASQGVSSAYLAWYQQKPGQAPRLLIYGTSRRATGIPDRFSGSGSGTDFTLTISRLEPEDFAVYYCQLYGRSSVTFGQGTKLEIK	0.076	–	–	–	–	–
C27-53-53 (antibody, human IgG4, V domains shown) VH: EVQLLESGGGLVQPGGSLRLSCAASGFTLSSYAMHWVRQAPGKGLEYVSGISSNGGSTYYANSVKGRFTISRDNPKNTLFLQMSSLRAEDTAVYYCVRVFVRYRGGMDVWGQGTTVTVSS VL: EIVLTQSPGTLSLSPGERATLSCRASQDASNAYLAWYQQKPGQAPRLLIYGTSRRATGIPDRFSGSGSGTDFTLTISRLEPEDFAVYYCQLYGSSSVTFGQGTKLEIK	0.293	–	–	–	–	–
C27-52-52 (antibody, human IgG4, V domains shown) VH: EVQLLESGGGLVQPGGSLRLSCAASGFTLSSYAMHWVRQAPGKGLEYVSGISSSGSSTYYANSVKGRFTISRDNPKNTLFLQMSSLRAEDTAVYYCVRVKPAYRGGMDVWGQGTTVTVSS VL: EIVLTQSPGTLSLSPGERATLSCRASQGVSTAYLAWYQQKPGQAPRLLIYGTSRRATGIPDRFSGSGSGTDFTLTISRLEPEDFAVYYCQLYGATSVTFGQGTKLEIK	0.476	–	–	–	–	–
C27-58-58 (antibody, human IgG4, V domains shown) VH: EVQLLESGGGLVQPGGSLRLSCAASGFTLSSYAMHWVRQAPGKGLEYVSGISPSSNSTYYANSVKGRFTISRDNPKNTLFLQMSSLRAEDTAVYYCVRVKVRYRGGMDVWGQGTTVTVSS VL: EIVLTQSPGTLSLSPGERATLSCRASQDISSAYLAWYQQKPGQAPRLLIYGTSRRATGIPDRFSGSGSGTDFTLTISRLEPEDFAVYYCQLYGATSVTFGQGTKLEIK	0.41	–	–	–	–	–
